{"source": "paper PMC4981888", "target": "GST-SVV (UniProt O15392)", "assay": "native gel or EMSA; 0.5 μg recombinant protein in native sample buffer (no SDS, no β-mercaptoethanol) on a 15% or 6% native polyacrylamide gel; Western blot with anti-SVV or anti-cortactin; monomer and dimer bands"}
{"substance": "GST-SVV (from UniProt O15392 1-142)", "values": [{"measurement": "stoichiometry N", "value": 2}]}
